The target in this test is HLA-A*02:01. The test is described as follows: IEDB peptide-MHC binding, purified MHC/competitive/fluorescence; ≥ and ≤ were set here for values at or beyond the usual limits of such assays. The conditions noted are these: source organism: Homo sapiens.
ALYLVCGERG: the IC50 (as a rule, the midpoint of a concentration-inhibition curve) was ≥ 100 µM. In the case of YLVCGERGFFY, the IC50 stood at 8.59 µM. For HLVEALYLVCG, the IC50 worked out at 0.19 µM. As for ALYLVCGER, the IC50 is ≥ 90.2 µM. On to ALYLVCGERGF, for which the half-maximal inhibitory concentration (IC50) worked out at 2.26 µM. Consider SHLVEALYL, for which the IC50 is 59.5 µM. GSHLVEALYLV registered an IC50 of 3.73 µM.

Sequence HLVEALYLVC came in with an IC50 of 1.75 µM. In the case of YLVCGERGFF, the IC50 was determined as 2.3 µM. The sequence HLCGSHLVEAL registered an IC50 of 0.44 µM.
